B1: 371_F03 (antibody, V domains shown)
VH: EVQLLESGGGLVQPGGSLRLSCAASGFTFSSYSMNWVRQAPGKGLEWVSGINYNGGYTSYADSVKGRFTISRDNSKNTLYLQMNSLRAEDTAVYYCARGATWHDTHLDYWGQGTLVTVSS
VL: DIQMTQSPSSLSASVGDRVTITCRASQSIITYLNWYQQKPGKAPKLLIYAATSLHSGVPSRFSGSGSGTDFTLTISSLQPEDFATYYCQQSYDNPLTFGGGTKVEIK
B2: 373_B09 (antibody, V domains shown)
VH: B1 VH with S30D, T58K
VL: B1 VL with I30L, T31S, L47V, H55A, D93E, N94T
B3: 365_F01 (antibody, V domains shown)
VH: B1 VH with S30D, G55S, T58K, S59G, G99S, T101N
VL: B1 VL with I30V, T31S, L47V, H55A, D93E, N94L
B4: 365_G11 (antibody, V domains shown)
VH: B1 VH with S33G, S49A, G50N, S59G, G99S, T101N, H106A
VL: B1 VL with L33V, A51V, L54R, D93N, N94S
B5: 373_F07 (antibody, V domains shown)
VH: B1 VH with G55S, T58K
VL: B1 VL with I30L, T31S, H55A, D93E, N94T
B6: 365_C10 (antibody, V domains shown)
VH: B1 VH with S33G, N35H, S49A, G50S, G99S, T101N, H106A
VL: B1 VL with I30L, T31S, L33V, H55A, D93E, N94S
B7: 365_B07 (antibody, V domains shown)
VH: B1 VH with S33G, N35H, S49A, G50S, G55S, G99S, T101N, H106A
VL: B1 VL with I30L, L54R, H55A, D93E
B8: 374_G05 (antibody, V domains shown)
VH: B1 VH with G50N, G55S, T58K, S59G
VL: B1 VL with T31S, L54R, H55A, N94L
B9: 365_A12 (antibody, V domains shown)
VH: B1 VH with S33G, N35H, S49A, R98K, G99S, T101N
VL: B1 VL with I30L, L33V, L54R, D93E
B10: 376_A02 (antibody, V domains shown)
VH: B1 VH with S49A, T58K
VL: B1 VL with I30L, T31S, L54R, H55A, N94L
B11: 374_D09 (antibody, V domains shown)
VH: B1 VH with S30D, S33G, S49A, G50N, T58K, S59G
VL: B1 VL with T31S, L33V, H55A, N94T
B12: 373_D06 (antibody, V domains shown)
VH: B1 VH with S49A
VL: B1 VL with I30V, L54R, H55A, N94T
B13: 374_A05 (antibody, V domains shown)
VH: B1 VH with S31D, S33G, S49A, G50N, T58K, S59G
VL: B1 VL with I30V, T31R, L47V, H55A, D93E, N94L
B14: 371_F09 (antibody, V domains shown)
VH: B1 VH with S49A
VL: B1 VL with I30L, L54R, H55A
B15: 365_C12 (antibody, V domains shown)
VH: B1 VH with S33G, S49A, G55S, T58K, G99S, T101N, H106A
VL: B1 VL with I30V, T31S, L33V, L47V, A51V, H55A, N94T
B16: 365_C01 (antibody, V domains shown)
VH: B1 VH with S30D, S33G, G50S, G55S, T58K, G99S, T101N
VL: B1 VL with I30V, T31S, L47V, A51V, L54R, H55A, D93E, N94S
B17: 365_E05 (antibody, V domains shown)
VH: B1 VH with S33G, N35H, S49A, G99S, T101N, H106A
VL: B1 VL with I30V, T31S, L33V, H55A
B18: 365_D12 (antibody, V domains shown)
VH: B1 VH with S30D, S33G, G50N, S59G, G99S, T101N, H106A
VL: B1 VL with I30V, L47V, L54R, H55A, N94T
B19: 365_E07 (antibody, V domains shown)
VH: B1 VH with S30D, S33G, N35H, G55S, R98K, G99S, T101N
VL: B1 VL with I30L, T31S, L54R, H55A
B20: 365_B11 (antibody, V domains shown)
VH: B1 VH with S33G, N35H, S49A, G99S, T101N, H106A
VL: B1 VL with T31S, L47V, A51T, L54R, N94S
B21: 372_H11 (antibody, V domains shown)
VH: B1 VH with S33G, N35H, S49A
VL: B1 VL with I30L, T31S, L33V, L54R, H55A, D93E
B22: 365_E09 (antibody, V domains shown)
VH: B1 VH with S33G, N35H, S49A, G50S, G55S, T58K, G99S, T101N, H106A
VL: B1 VL with I30L, L33V, L47V, L54R, H55A, Y92D, N94S
B23: 365_F06 (antibody, V domains shown)
VH: B1 VH with S33G, S49A, G55S, T58K, G99S, T101N, H106A
VL: B1 VL with I30L, T31S, L33V, L54R, H55A, Y92D, D93N, N94L
B24: 365_C11 (antibody, V domains shown)
VH: B1 VH with S49A, T58K, G99S, T101N
VL: B1 VL with L47V, A51V, L54R, H55A, D93S, N94L
B25: 372_E08 (antibody, V domains shown)
VH: B1 VH with S31D, G50N
VL: B1 VL with L54R, H55A, D93N, N94L
B26: 371_H11 (antibody, V domains shown)
VH: B1 VH with T58K, S59G
VL: B1 VL with I30L, A51T, L54R, D93E, N94S
B27: 365_A11 (antibody, V domains shown)
VH: B1 VH with S30D, S31D, S33G, G55S, G99S, T101N, H106A
VL: B1 VL with I30L, T31S, L47V, H55A, D93E, N94S
B28: 375_A03 (antibody, V domains shown)
VH: B1 VH with S30D, S49A
VL: B1 VL with I30L, L54R
B29: 374_D04 (antibody, V domains shown)
VH: B1 VH with S49A
VL: B1 VL with I30L, T31S, L47V, L54R, N94T
B30: 372_B09 (antibody, V domains shown)
VH: B1 VH with G50S, G55S
VL: B1 VL with I30L, L54R, H55A, D93E, N94T
B31: 371_G01 (antibody, V domains shown)
VH: B1 VH with S31D, G50N
VL: B1 VL with I30L, H55A, N94L
B32: 374_H05 (antibody, V domains shown)
VH: B1 VH with S49A
VL: B1 VL with I30L, T31S, L33V, L47V, L54R, H55A
B33: 365_A03 (antibody, V domains shown)
VH: B1 VH with S49A, G55S, T58K, S59G, G99S, T101N, H106A
VL: B1 VL with I30L, T31S, L47V, A51V, L54R, H55A, N94S
B34: 365_D09 (antibody, V domains shown)
VH: B1 VH with S33G, N35H, G55S, G99S, T101N, H106A
VL: B1 VL with I30L, T31S, L54R, H55A, Y92D, D93E, N94S
B35: 374_A04 (antibody, V domains shown)
VH: B1 VH with S49A
VL: B1 VL with I30L, L47V, L54R, H55A, N94T
B36: 365_G01 (antibody, V domains shown)
VH: B1 VH with S30D, S33G, S49A, G55S, T58K, G99S, T101N, H106A
VL: B1 VL with I30L, L33V, A51T, L54R, H55A, N94S
B37: 375_C11 (antibody, V domains shown)
VH: B1 VH with G50S
VL: B1 VL with I30L, T31S, L33V, L54R, N94T
B38: 376_A07 (antibody, V domains shown)
VH: B1 VH with T58K
VL: B1 VL with I30L, L54R, H55A, N94S
B39: 365_B06 (antibody, V domains shown)
VH: B1 VH with S30D, S33G, N35H, G50N, T58K, G99S, T101N, H106A
VL: B1 VL with I30L, L33V, A51T, H55A, N94L
B40: 365_B01 (antibody, V domains shown)
VH: B1 VH with S30D, S33G, N35H, S49A, G50S, G55S, G99S, T101N, H106A
VL: B1 VL with I30S, T31S, L33V, L47V, L54R, H55A, D93E, N94S
B41: 375_B03 (antibody, V domains shown)
VH: B1 VH with S49A
VL: B1 VL with I30L, L54R, H55A, N94S
B42: 375_F10 (antibody, V domains shown)
VH: B1 VH with S59G
VL: B1 VL with I30L, L47V, L54R, H55A, N94T
B43: 365_E01 (antibody, V domains shown)
VH: B1 VH with S31D, G55S, T58K, S59G, G99S, T101N, H106A
VL: B1 VL with T31S, L54R, H55A, N94S
B44: 365_F12 (antibody, V domains shown)
VH: B1 VH with S31D, G99S, T101N
VL: B1 VL with I30L, L33V, L47V, L54R, D93E, N94T
B45: 375_H08 (antibody, V domains shown)
VH: B1 VH
VL: B1 VL with I30L, H55A, N94S

Positions count from the first letter of the chain named.

The target in the assay is Human Fc (human). Briefly: ELISA; negative control.
Regarding B1, the optical density was 0.252 OD.

The molecule B2 registered an optical density of 0.172 OD.

Consider B3, for which the optical density turned out to be 0.341 OD.

With B4, the optical density stood at 0.278 OD.

B5 displayed an optical density of 0.172 OD.

In the case of B6, the optical density came out at 0.397 OD.

Take B7: the optical density was 0.269 OD.

For the molecule B8, the optical density stood at 0.158 OD.

B9 gave an optical density of 0.422 OD.

In turn, B10 had an optical density of 0.22 OD.

The molecule B11 yielded an optical density of 0.171 OD.

As to B12, the optical density stood at 0.192 OD.

The molecule B13 displayed an optical density of 0.159 OD.

B14 yielded an optical density of 0.602 OD.

Consider B15, for which the optical density was found to be 0.332 OD.

In the case of B16, the optical density is 0.376 OD.

Consider B17, for which the optical density came out at 0.379 OD.

Turning to B18, the optical density was found to be 0.34 OD.

With B19, the optical density was found to be 0.302 OD.

In the case of B20, the optical density was 0.305 OD.

B21 had an optical density of 0.392 OD.

Molecule B22 displayed an optical density of 0.322 OD.

With B23, the optical density was 0.329 OD.

On to B24, for which the optical density was found to be 0.296 OD.

Regarding B25, the optical density was 0.369 OD.

B26 showed an optical density of 0.363 OD.

In turn, B27 yielded an optical density of 0.299 OD.

Molecule B28 had an optical density of 0.203 OD.

For the molecule B29, the optical density worked out at 0.179 OD.

On to B30, for which the optical density is 0.308 OD.

B31 showed an optical density of 0.375 OD.

In the case of B32, the optical density is 0.257 OD.

With B33, the optical density amounted to 0.342 OD.

B34: the optical density is 0.302 OD.

For B35, the optical density was 0.275 OD.

B36: the optical density came out at 0.39 OD.

On to B37, for which the optical density was determined as 0.199 OD.

B38 returned an optical density of 0.221 OD.

B39 had an optical density of 0.281 OD.

Molecule B40 gave an optical density of 0.445 OD.

For B41, the optical density was 0.209 OD.

In the case of B42, the optical density came to 0.21 OD.

As for B43, the optical density turned out to be 0.363 OD.

For the molecule B44, the optical density worked out at 0.411 OD.

B45 gave an optical density of 0.204 OD.

For the origin of these results see patent US20210380703A1.
